{"source": "the DeepSol protein solubility set", "data": [{"experiment": "soluble on expression in E. coli; label from the status in PepcDB or PDB records", "values": [{"sequence": "SNGEEEFFDAVTGFDSDNSSGEFSEANQKVTGMIDLDTSKNNRIGKTGERPSQENGIQKHRTSLPAPMFSRSDFSVWTILKKCVGLELSKITMPIAFNEPLSFLQRITEYMEHVYLIHRASCQPQPLERMQSVAAFAVSAVASQWERTGKPFNPLLGETYELIREDLGFRFISEQVSHHPPISAFHSEGLNHDFLFHGSIYPKLKFWGKSVEAEPRGTITLELLKHNEAYTWTNPTCCVHNVIIGKLWIEQYGTVEILNHRTGHKCVLHFKPCGLFGKELHKVEGHIQDKNKKKLFMIYGKWTECLWGIDPVSYESFKKQERRGDHLRKAKLDEDSGKADSDVADDVPVAQETVQVIPGSKLLWRINTRPPNSAQMYNFTSFTVSLNELETGMEKTLPPTDCRLRPDIRGMENGNMDLASQEKERLEEKQREARRERAKEEAEWQTRWFYPGNNPYTGTPDWLYAGDYFERNFSDCPDIY", "soluble on expression in E. coli": "soluble"}, {"sequence": "MGSDKIHHHHHHMKIGVLSQFPELYSTRRLVEACESRGHEAWVINPINCYMNINSVKPSIHLEGEEVPMFDAIIPRIHASVTFYGCAVVRQFEMMGVFAANDSISIARSRDKLRALQLLSRKGIGMPVTGFANKPNNIPDLINMVGGAPLVIKLLEGTQGIGVVLAETRKAAESVIEAFLGLKANIMVQEYIKEANGSDIRCFVVGDKVVAAMRRQGPEGDFRSNLHLGGSAEPVKITPQERKSAVAAAKAMGLVVAGVDILRSARGPLVLEVNSAPGIEGIEQATGIKVAEPIVEYIEKVVAARRANHQVIA", "soluble on expression in E. coli": "not soluble"}, {"sequence": "MSLKIERLNIIVTCPGRNFVTVKIVTDEGVHGLGDATLNGRELAVRAYLEDHVFPCLIGRDPRDIEDIWQYLYRGAYWRRGPVTMTAIAAIDMALWDIKSKLAGMPVYQLLGGKSREGLMVYGHANGRDHDEAIDAAHRHIAAGYRAIRVQSGVPGLAKVYGVGKTAGAYEPAEKGLPPEEPWDTALYLRHTPELFRKVRDALGDAPHLLHDAHHRLTPIEAARLGRDLEPYRLFWLEDATPAENQDAFRLIRSHTTTTLAVGEVFNSIWDCKDLIRDQLIDYIRATIVHAGGITHVRRIADYAAMYQVRTGFHGATDLSPVCMAAAVNFGLWAPNFGIQELMPHTALTDEVFPHNYRFDDGYLVMDDVPGLGVDIDETLAANYPYERAYLPVARLRDGSMWNWEGHHHHHH", "soluble on expression in E. coli": "not soluble"}, {"sequence": "MSLGLNILKTLRSHRVSEGVSNSDTHYELTSALIKSLRGSDIDASIYYLARLIQGGEEPAFLARRMVIFASEDIGNANPNALNLATNVMLAVSKIGYPEARIILAQCAVYLASSPKSNSSYKAINDAIEFVENRPALPVPKYLINTDKAKSEYLYPHDFGGWVEQKYMSTQVKFYKSNAIGFEKTLDEWITKLKESYNEKEGHHHHHH", "soluble on expression in E. coli": "soluble"}, {"sequence": "MGSDKIHHHHHHMTIYSWNALYLGNAGDIDSYEGDLYAEGASNILGSYGSPGDPLYDHIVDVVVNDADDDTDINSDNYDFWSPDAMTVDGVAHTLDSGVVYNATLTYADGSTANITAVVIQTTDGDLYLAPEMTANDDWVAMEAKAIVSVSLDSVSVDTTYIAANRQQTNFICFAAGTRIATPKGARPVETLAVGDLVQTLDHGPQPIRWIGTRRVGLATQLLSHGVAPVVIPAHSFAPSIPTHPLLLSQQHRVLLRSRIARRMYGSDEILIAARRLTGLHGIALRPATGPVRYIHFALDRHEIVFANGLPAETLLLGAEVERVLGTDVFTQIEQSQNRGAIALAMRPARPIVEGRRARSFVERLRNRACRHALANPIKVPQNRVTGLISLVSPPG", "soluble on expression in E. coli": "not soluble"}, {"sequence": "MFGLVDAVSFYARAEKVFDPSIRHKPVVVLTNNDGCICAVCPIARQLGVPKFVPYFKVKSFLAKHGVVVRSSNYELYADLSERMMNVIARYSDNHYVYSIDESFLHFKNFSCVDNWHEYGHVIRKAVWRETRLPVGVGFGATLTLAKAANHASKKLSGFDGVAVIDDKASRKEILSRMSLTEVWGIGSKLGKRLSILGLKNGWDLANQSPKAMRGQFGVVVERTVNELNGMPCLQWDEIGQDKQEIFSTRSFGQRVTDGHALKAALSSHASIVGAKVRRQGSLIKRLVIFASSSPHDDSYYKKSVIYEFPIATDNILKLVGAISYVFDNIYRQGVSFYRCGVGGVELENSQFQQQDMFSLSVNNPPLMKCYDQINHRYGRGAVEVAIAEKNEKWAMRRNFLSPRSTSNWSEIPKINCLEHHHHHH", "soluble on expression in E. coli": "not soluble"}, {"sequence": "MNIQNPVLKGFNPDPSIVRAGDDYYIATSTFEWFPGVQIHHSKDLVHWHLVAHPLSTTEFLDMKGNPDSGGIWAPDLSYADGKFWLIYTDVKVVDGMWKDCHNYLTTAEDIKGPWSKPILLNGAGFDASLFHDPSGKKYLVNMYWDQRVYHHNFYGIALQEYSVAEEKLIGKPEIIYKGTDIAYTEGPHLYYINDMYYLMTAEGGTTYQHSETIARSKTIHGPYEIQPDYPLLSAWKEVHNPLQKCGHASLVETQNGQWYLAHLTGRPLPAPAGFPSREREQHAFCPLGRETAIQKIEWQDGWPVVVGGQQGSLEVEAPDLPQQEWAPTYEERDDFDKDTLNINFQTLRIPFSEHLGSLTARPGFLRLYGRESLQSKFTQAHIARRWQSFNFDAGTSVEFSPNSFQQMAGLTCYYNTENWSSIHVTWNEEKGRIIDLVTADNGTFSMPLAGAEIPIPDEVKTVHFKVSVRGRIYQYAYSFDGETFHTLPIELPSWKLSDDYVRGGGFFTGAFVGINAIDITGTALPADFDYFTYKELD", "soluble on expression in E. coli": "soluble"}, {"sequence": "MGDDCSDHSSLCKHCCYEMIRDSIKDYKSGPLYARCPQCFRNISSLTRRKRRLTSEGHDENCPAPMVPMVNAEHSISLCDYTTSMMGGGQVNKGFESSSSLFLCFRKFPIGNYNQKFFVGDSLKNGRIQYRNTKYEYSKKHFRSYKFFMIFQICRSKFQNL", "soluble on expression in E. coli": "not soluble"}, {"sequence": "EDLGYFCVDNLPPSLLPKFLELMKESNSKMSKVALVMDLRGREFFDRLIEALDEMAENPWITPRILFLDAKDSILVTRYKETRRSHPLAATGLPLEGIALERELLEELKGRSQIIYDTSDMKPRDLREKIVKHFATNQGETFTVNVMSFGFKYGIPIDADLVFDVRFLPNPYYIESMRPLTGKDKEVSSYVMKWNETQKFNEKLIDLLSFMLPSYKREGKSQVVIAIGCTGGQHRSVTLAENLADYFKKDYYTHVTHRDIEKR", "soluble on expression in E. coli": "not soluble"}, {"sequence": "LISPDVDIEEITTRILEEAMGLTGSEQGFVATIDPLSRTLVIHTFSSMMDCLWQGGEEGRRILFPPGQDGSYPTLWGHSLNTKCPFYTNDPAGHPSAVGVPHGHIPLRHFLSVPVMLGDEVVAQISLANPGRDYTERDLEAIGRVAKFFALAIQRMRAEESIR", "soluble on expression in E. coli": "not soluble"}, {"sequence": "MMTNPKVIILGGRFGGLQTAYELKRYLKGKIDIKLIERNRYIYFRPALPHVAIGLENPDDLRIDISEALSAKGIEYIQGTVTRIDPAKNTVEYNKEGAGPSKEKYDYLVIALGSHLATELITGFEKFGSSVCEADLALSMWNKLNAFKGGNITLGSAKFIQDNKNRPTNNPDAYAPLLESACEGPVYEMSIMLYDYFKAKGMLDKVKMTVYSPGKYLSDLSETNRATVAAMYKGMDIDIVDNFVLKEVTEKEVISEDGKRLPSDLSFILPPYMGQQMVKDAGLGDEAGFVLTDTNMKSVKYDNVYAVGDINALIVPKMAALAVKSARIAAANIANNLGNKVPIEVYDPKIVCIADDPYGKYAVAIVDSTAYGGNISEAVPSAANHLKKSLFTRYFLWSKGDLAMDKYLTSWLEHHHHHH", "soluble on expression in E. coli": "not soluble"}, {"sequence": "GPGSMLRCNISQRVPTHPVVSVKSGLVFERSLVEKYVDEHGRCPVTGDPLRKEDLITAQGAAPDASIASSGSLGAASVPTLLERLQVEWEGVALEQFSLRQQVTQLQLELAHALQQYDAACRVIARLSKELDSLRGGKAVAAEETDKGPAVVVVPAPVLRRMDAAEAAERQARKQRKAAAGSTAATPSQLTEEAQWVATPSSSASASSARSAVRVAAAADASSSGVFVSAVTGDHAIVRYSPDGFSEEARGIGHTATVHTLASQPGDILLSAAEDLTVRVWSTKGAALTVMHTLRYASGVVAMSQRTVGGAYMLCGAGDGVLTLSDLESGAHVVATAPLTLDTTSGALTCVELHPYASLAAVAFQPTELQLWDAREMRADTFISHVRGTAPRTHICSASFSADCVSLAAGLTDGSVYVWDLRQVLAPVAVLPPSADAVPATVRYAPDGRSLVVGGHGVTLYDCARLSASSTAVEAVATAGLKASAVCDVCWTTSGTDVLCGSVDGVVRLYSTAAGAT", "soluble on expression in E. coli": "soluble"}, {"sequence": "MINLRWPLNWLKLQSSHGQRLNSQLNLIHSRKWIDFDEQIVGTWKLASSENCPNFIEWFGIEKKKSNYGYYNDLTQAKLNENLVFKMNYNNIVGIPKLFPHMSEKTVRENRHIKTTDDRSLKLTIDRYIDMGKLNVTMELKVNEGKHVCTCKLVYDRVYY", "soluble on expression in E. coli": "not soluble"}, {"sequence": "MAHHHHHHMKGSNTVHTREANANEVHASRQDMRAALLPSDTRILVSRIPASAVSVVSDETRAKGRRRCLVTRTLRRCPEMMSHRRGGHAALVSLLLPLTSHRFCVSPSHVLSIASCAFPCTHSCCVQQGVHPSHLPACLPACRRPRACFVSALCRAHEHAVMFSYNNIIEKGEPLNKEIIDHVLDHVTEFPTPTMVSVGDGKADCIVLENFLTHEECDQLVAACEKVGYTFWLQKNHHDADGEATCDSGSKAVRVVDTIEANFPHLSAKLYERIARVVSLKPKCFSEDMPNAEELFERELAGTWVPHALSENLLFGRYHPGGHFMPHVDGATILDLNTRSFYTLLIYLNDCLHGGETFIFAGEQCNVMYLDEKENQYRGNATQRVGAVYPKKGSAAFFYYNLLHEGAPVLEGHKYICRADLLYHRTPTIFTSEADEKAFKAYQEARLAESHGDAERACQLFQRVRKLSKGVASIFQIE", "soluble on expression in E. coli": "not soluble"}, {"sequence": "MVAQNSVVVIGASGFGRESLDVLEAMKEAGHSLEIIGVVDDNPAAINLQRLAERKIEYLGTLKEWIEGSPKSCKYVLAIGNPTIRHKLSALLDKSGFDAFTAVHPSAVIGSQVVFGSGAVVCSGAVISTNVRLGVHVHINPNVTIGHDSILEDYVSINPAATISGEVLIMEETLIGAAATVLQGLTIGNRSLVGASSCVTKDISAGKVVKGIPARLEHHHHHH", "soluble on expression in E. coli": "soluble"}, {"sequence": "MRLSDAEILHELRHTPLKELGERAYEVKKRLHPKRITTFVVDRNINYTNICWVDCKFCAFKRKLSQEETYILSFEEIDRKIEELIAIGGTQILFQGGVHPELKIEWYENLVSHIAQKFPEITIHGFSAIEVDYIARLSKLSLKETLQRLQAAGLSSIPGAGAEILSDRVRDIIAPKKLSADRWIEVHRTAHQIGMKSTATMMFGTIEEEEDIIEHWRRIRELQEETGGFRAFILWSFQPHHTPLKAEFPHLQKSSSNRYLRLLAASRLYLDNFPNLQSSWVTQGSYIGQMALLFGANDLGSTMMEENVVSAAGARNQMNQEEMIALIKDVGELPAKRNTAYEILERY", "soluble on expression in E. coli": "not soluble"}, {"sequence": "MPAILSRVAPRTFNLVGSRLMASAARLETVPREEIHKEYDRKKTFYHRDLEIQLAGPTQLKTKPLDPTKLKFGHTYADYMMTCDWDAERGWHHPKIEPIGELKIHPGAKVLHYASELFEGMKAYRGIDNKIRMFRPEMNMARMKRTALRAALPDFDSEEMINVLTELLRLDQEWVPNSDVCSLYLRPTLIGTDPTLGVGCATEAKMFVITGPVGAYYSTGFQPVSLLADSRFIRAFPGGVGAYKMGCNYAPTIWVGKEAASKNCQQVLWLYGENEDLTEVGTMNIFLFWKNEEGDMELITPPLHRGLILPGVTRDSLLELGREWGEYKVTERTLNMEEVKKALSEKRLYEMFGSGTACVVSPVGKILYHNKVTDEYEELHIPTMSSKFGVMQKFYNTINDIQYGRIIKDGWMRDI", "soluble on expression in E. coli": "not soluble"}]}]}
